Experimental data from patent US20240239870A1 (published 2024).

B1: anti-PCSK9 Adnectin 2013E01 (designed binder)
chain: MGVSDVPRDLEVVAATPTSLLISWVPPSDDYGYYRITYGETGGNSPVQEFTVPIGKGTATISGLKPGVDYTITVYAVEFPWPHAGYYHRPISINYRTEIDKPSQHHHHHH
notes: also called ATI001081
B2: ATI001174 [2013E01-non His tagged Cys mut], pegylated (designed binder)
chain: MGVSDVPRDLEVVAATPTSLLISWVPPSDDYGYYRITYGETGGNSPVQEFTVPIGKGTATISGLKPGVDYTITVYAVEFPWPHAGYYHRPISINYRTEIEKPCQ
modifications: pegylated via the cysteine of the EIEKPCQ tail (asterisk in Table 5)
notes: PEGylated, non His tagged cysteine mutant of 2013E01; also called ATI1174

Experiments:
[1] = target: T1, human PCSK9 (proprotein convertase subtilisin kexin type 9) (human, UniProt Q8NBP7 31-692, biotinylated in the BLI assay (site not stated)); test: ITC, 37 C
T1 construct: Immobilized directly (SPR), biotinylated on streptavidin tips (BLI), recombinant from baculovirus (FRET); also called hPCSK9
T1 sequence (Q8NBP7 31-692 limits assumed): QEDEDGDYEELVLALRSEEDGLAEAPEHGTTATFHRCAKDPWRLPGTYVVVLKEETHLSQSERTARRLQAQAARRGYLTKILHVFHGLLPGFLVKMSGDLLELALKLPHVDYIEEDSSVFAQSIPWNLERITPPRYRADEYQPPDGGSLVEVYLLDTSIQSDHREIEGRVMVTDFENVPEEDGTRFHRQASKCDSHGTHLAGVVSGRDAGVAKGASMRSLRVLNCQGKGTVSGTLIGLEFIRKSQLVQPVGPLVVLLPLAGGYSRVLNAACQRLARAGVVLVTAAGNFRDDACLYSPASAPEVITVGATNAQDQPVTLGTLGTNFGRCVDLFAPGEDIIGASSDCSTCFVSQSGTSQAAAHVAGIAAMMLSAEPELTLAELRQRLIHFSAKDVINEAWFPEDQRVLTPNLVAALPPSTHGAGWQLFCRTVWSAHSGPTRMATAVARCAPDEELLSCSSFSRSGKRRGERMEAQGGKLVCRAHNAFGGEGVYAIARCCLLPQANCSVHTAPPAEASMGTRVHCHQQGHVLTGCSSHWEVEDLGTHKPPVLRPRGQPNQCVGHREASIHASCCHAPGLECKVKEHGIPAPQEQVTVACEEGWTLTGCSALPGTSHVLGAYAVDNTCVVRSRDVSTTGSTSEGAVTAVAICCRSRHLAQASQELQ

[2] = target: T1, human PCSK9 (proprotein convertase …); test: ITC, 37 C, average of 3 experiments
Protocol: Solution phase binding was measured in 25 mM HEPES, pH 7.41, 150 mM NaCl at 37° C.

Row | Binder | ΔS [1] [cal/mol ° C.] | ΔS [2] [cal/mol ° C.]
1 | B1 | -45.4 | –
2 | B2 | – | -55.8
